Reference: publication doi:10.1101/509299 (bioRxiv, 2019)

Target: integrin αIIbβ3 on K562 cells stably expressing recombinant αIIbβ3 (αIIbβ3-K562) (UniProt P08514 32-1039; P05106 27-788)
Experiment: flow cytometry on cells

B1: Eptifibatide (peptide)
chain: RGDWPC
modifications: homoarginine (Har) at position 2
  IC50: 0.0732 µM
